# Test results: the supplement of paper PMC10065799, “High-throughput profiling of sequence recognition by tyrosine kinases and SH2 domains using bacterial peptide display” (eLife, 2023)
# Tested on: c-Src
# Experiment: phosphorylation enrichment, bacterial display (enrichment ratio); higher = better substrate or ligand; peptides without Tyr show the background
# 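Throughout, for SH2 binding enrichment of the phosphorylated peptide, bacterial display: peptide library displayed on the E. coli surface as eCPX fusions, selected cells deep-sequenced, score is each peptide's frequency after selection divided by its frequency in the input.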
# 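Throughout, for phosphorylation enrichment, bacterial display: 11-residue human phosphosite peptides and single-mutation variants displayed on the E. coli surface, counted by deep sequencing, each peptide's frequency after selection divided by its frequency in the unselected input library; frequency after pTyr selection over input frequency; kinase dosed for 20-30% of maximal phosphorylation in three min.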
row,Sequence,phosphorylation enrichment
1,PAIFTYDEFKK [COL8A2_Y648_T645I_YF],3
2,PLTRSYIREKV [CYP2C8_Y243_A238P],0.448
3,TLMNAYSSCSH [KIF11_Y231_R234C],0.45
4,FLTQHHDAKPQ [ANG_Y38_Y38H],0.396
5,GAVDTYCRHNY [HLA-DRB1_Y107_A102G],0.575
6,EELLHYAIVTP [POC5_Y37],1.09
7,KLLPEYPGILS [DHFR2_Y163_V166I],0.431
8,EVEPTYVVLYD [ERCC4_Y577_R576T],4.73
9,ETEMLYGSARR [PRC1_Y464_P468R],2.81
10,EFISEFCGEII [EZH2_Y641_Y641F],0.618
11,MSLPGYKLVTG [GJA1_Y286_P283L],0.353
12,NKVKFYIPFMN [NCR1_Y84_D87Y_YF],0.413
13,KSSDVYVSYDY [SORL1_Y136],4.15
14,LSALDYKIFYY [WDPCP_Y210],0.495
15,ACCLLYRGDVV [TUBA4A_Y319],5.88
16,SSREGYVRHHN [FAM83B_Y433_S435R],0.38
17,MHLRQYKLLGG [GNAS_Y391_E392K],0.419

row,Sequence,phosphorylation enrichment
1,SVMAEYGLYAA [VSX2_Y219_G223A],5.12
2,LTTPTFGDLNH [TUBB_Y222_Y222F],0.577
3,PMQLPYDSTWE [PDGFRB_Y589],1.1
4,IEKLTYIDKWF [CPS1_Y872],0.601
5,RALRHYFKLNI [ETV6_Y401_YF],0.394
6,VFAANYFKLLG [ROR2_Y645_D644N_YF],0.56
7,MAQDIYRASYY [ALK_Y1278_R1275Q],3.15
8,MEFLPYGSLRD [JAK2_Y934_YF],2.6
9,SEDSEYFRAFE [CASQ2_Y178_K180R_YF],0.693
10,RVGNMYMRGLS [ABCG8_Y209_V210M],0.552
11,TSNQEYLDLSM [FGFR1_Y766],0.492
12,FRKNTYNVKST [SYNE2_Y575_I574T_YF],0.437
13,VKPENYRRLDI [VHL_Y175],0.324
14,KLASTYREAAT [DEAF1_Y483_H479L],0.273
15,IRTDAYVPAMT [RPE65_Y89_R91P],0.401
16,GLIPAYHRVIM [NMNAT1_Y64],0.414

# Biological target: Grb2 SH2 (UniProt P62993)
# Sequence (P62993 whole entry, looked up): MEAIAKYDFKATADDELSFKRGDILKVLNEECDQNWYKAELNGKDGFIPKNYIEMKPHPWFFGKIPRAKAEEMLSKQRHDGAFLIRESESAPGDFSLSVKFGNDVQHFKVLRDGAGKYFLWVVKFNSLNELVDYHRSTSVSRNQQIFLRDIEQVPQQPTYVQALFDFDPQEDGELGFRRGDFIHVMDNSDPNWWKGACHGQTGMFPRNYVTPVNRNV
# Experiment: SH2 binding enrichment of the phosphorylated peptide, bacterial display (enrichment ratio); higher = better substrate or ligand; peptides without Tyr show the background
row,Sequence,SH2 binding enrichment
1,PAIFTYDEFKK [COL8A2_Y648_T645I_YF],0.829
2,PLTRSYIREKV [CYP2C8_Y243_A238P],0.923
3,TLMNAYSSCSH [KIF11_Y231_R234C],0.808
4,FLTQHHDAKPQ [ANG_Y38_Y38H],0.876
5,GAVDTYCRHNY [HLA-DRB1_Y107_A102G],0.827
6,EELLHYAIVTP [POC5_Y37],0.691
7,KLLPEYPGILS [DHFR2_Y163_V166I],0.884
8,EVEPTYVVLYD [ERCC4_Y577_R576T],0.775
9,ETEMLYGSARR [PRC1_Y464_P468R],0.853
10,EFISEFCGEII [EZH2_Y641_Y641F],1.24
11,MSLPGYKLVTG [GJA1_Y286_P283L],0.766
12,NKVKFYIPFMN [NCR1_Y84_D87Y_YF],1.64
13,KSSDVYVSYDY [SORL1_Y136],0.729
14,LSALDYKIFYY [WDPCP_Y210],1.03
15,ACCLLYRGDVV [TUBA4A_Y319],1.05
16,SSREGYVRHHN [FAM83B_Y433_S435R],0.956
17,MHLRQYKLLGG [GNAS_Y391_E392K],0.715

row,Sequence,SH2 binding enrichment
1,SVMAEYGLYAA [VSX2_Y219_G223A],0.838
2,LTTPTFGDLNH [TUBB_Y222_Y222F],0.604
3,PMQLPYDSTWE [PDGFRB_Y589],0.673
4,IEKLTYIDKWF [CPS1_Y872],0.724
5,RALRHYFKLNI [ETV6_Y401_YF],2.81
6,VFAANYFKLLG [ROR2_Y645_D644N_YF],0.991
7,MAQDIYRASYY [ALK_Y1278_R1275Q],0.882
8,MEFLPYGSLRD [JAK2_Y934_YF],0.798
9,SEDSEYFRAFE [CASQ2_Y178_K180R_YF],0.874
10,RVGNMYMRGLS [ABCG8_Y209_V210M],1.42
11,TSNQEYLDLSM [FGFR1_Y766],0.863
12,FRKNTYNVKST [SYNE2_Y575_I574T_YF],1.27
13,VKPENYRRLDI [VHL_Y175],0.879
14,KLASTYREAAT [DEAF1_Y483_H479L],0.787
15,IRTDAYVPAMT [RPE65_Y89_R91P],0.817
16,GLIPAYHRVIM [NMNAT1_Y64],1.07

# Biological target: SHP2-C SH2
# Experiment: as above
row,Sequence,SH2 binding enrichment
1,PAIFTYDEFKK [COL8A2_Y648_T645I_YF],0.888
2,PLTRSYIREKV [CYP2C8_Y243_A238P],0.904
3,TLMNAYSSCSH [KIF11_Y231_R234C],0.658
4,FLTQHHDAKPQ [ANG_Y38_Y38H],0.669
5,GAVDTYCRHNY [HLA-DRB1_Y107_A102G],0.721
6,EELLHYAIVTP [POC5_Y37],1.7
7,KLLPEYPGILS [DHFR2_Y163_V166I],0.71
8,EVEPTYVVLYD [ERCC4_Y577_R576T],0.563
9,ETEMLYGSARR [PRC1_Y464_P468R],0.871
10,EFISEFCGEII [EZH2_Y641_Y641F],0.895
11,MSLPGYKLVTG [GJA1_Y286_P283L],0.682
12,NKVKFYIPFMN [NCR1_Y84_D87Y_YF],1.22
13,KSSDVYVSYDY [SORL1_Y136],0.768
14,LSALDYKIFYY [WDPCP_Y210],0.868
15,ACCLLYRGDVV [TUBA4A_Y319],0.849
16,SSREGYVRHHN [FAM83B_Y433_S435R],0.573
17,MHLRQYKLLGG [GNAS_Y391_E392K],0.453

row,Sequence,SH2 binding enrichment
1,SVMAEYGLYAA [VSX2_Y219_G223A],0.776
2,LTTPTFGDLNH [TUBB_Y222_Y222F],0.551
3,PMQLPYDSTWE [PDGFRB_Y589],1.47
4,IEKLTYIDKWF [CPS1_Y872],0.465
5,RALRHYFKLNI [ETV6_Y401_YF],2.6
6,VFAANYFKLLG [ROR2_Y645_D644N_YF],0.985
7,MAQDIYRASYY [ALK_Y1278_R1275Q],0.73
8,MEFLPYGSLRD [JAK2_Y934_YF],0.574
9,SEDSEYFRAFE [CASQ2_Y178_K180R_YF],0.559
10,RVGNMYMRGLS [ABCG8_Y209_V210M],1.7
11,TSNQEYLDLSM [FGFR1_Y766],0.781
12,FRKNTYNVKST [SYNE2_Y575_I574T_YF],0.976
13,VKPENYRRLDI [VHL_Y175],0.769
14,KLASTYREAAT [DEAF1_Y483_H479L],0.508
15,IRTDAYVPAMT [RPE65_Y89_R91P],0.62
16,GLIPAYHRVIM [NMNAT1_Y64],0.856

# Biological target: c-Src SH2
# Experiment: as above
row,Sequence,SH2 binding enrichment
1,PAIFTYDEFKK [COL8A2_Y648_T645I_YF],0.509
2,PLTRSYIREKV [CYP2C8_Y243_A238P],0.351
3,TLMNAYSSCSH [KIF11_Y231_R234C],1.24
4,FLTQHHDAKPQ [ANG_Y38_Y38H],0.604
5,GAVDTYCRHNY [HLA-DRB1_Y107_A102G],0.518
6,EELLHYAIVTP [POC5_Y37],1.13
7,KLLPEYPGILS [DHFR2_Y163_V166I],0.528
8,EVEPTYVVLYD [ERCC4_Y577_R576T],0.532
9,ETEMLYGSARR [PRC1_Y464_P468R],0.495
10,EFISEFCGEII [EZH2_Y641_Y641F],0.743
11,MSLPGYKLVTG [GJA1_Y286_P283L],0.489
12,NKVKFYIPFMN [NCR1_Y84_D87Y_YF],1.57
13,KSSDVYVSYDY [SORL1_Y136],1.18
14,LSALDYKIFYY [WDPCP_Y210],0.956
15,ACCLLYRGDVV [TUBA4A_Y319],0.776
16,SSREGYVRHHN [FAM83B_Y433_S435R],0.592
17,MHLRQYKLLGG [GNAS_Y391_E392K],0.483

row,Sequence,SH2 binding enrichment
1,SVMAEYGLYAA [VSX2_Y219_G223A],0.511
2,LTTPTFGDLNH [TUBB_Y222_Y222F],0.822
3,PMQLPYDSTWE [PDGFRB_Y589],1.17
4,IEKLTYIDKWF [CPS1_Y872],0.311
5,RALRHYFKLNI [ETV6_Y401_YF],1.66
6,VFAANYFKLLG [ROR2_Y645_D644N_YF],1.03
7,MAQDIYRASYY [ALK_Y1278_R1275Q],0.755
8,MEFLPYGSLRD [JAK2_Y934_YF],0.573
9,SEDSEYFRAFE [CASQ2_Y178_K180R_YF],0.439
10,RVGNMYMRGLS [ABCG8_Y209_V210M],1.01
11,TSNQEYLDLSM [FGFR1_Y766],0.487
12,FRKNTYNVKST [SYNE2_Y575_I574T_YF],0.679
13,VKPENYRRLDI [VHL_Y175],0.459
14,KLASTYREAAT [DEAF1_Y483_H479L],0.418
15,IRTDAYVPAMT [RPE65_Y89_R91P],0.463
16,GLIPAYHRVIM [NMNAT1_Y64],1.2
